From US20200179430A1, “USE OF P2Y1 RECEPTOR AND ANTAGONIST THEREOF IN PREVENTION AND TREATMENT OF DEPRESSION AND/OR ANXIETY DISORDER” (SOUTHERN MEDICAL UNIVERSITY, priority 2017, published 2020) come the findings set out here.

Entries after “also recorded” stand apart in the source; their conditions may differ.

The target of data set [1] is T1, P2Y1 receptor (Mus musculus, UniProt P49650).
T1 construct: from tissue; host or cells: living C57BL/6J mice; brain (lateral ventricle administration, ventral tegmental area) or systemic (intraperitoneal)
T1 sequence (P49650 whole entry): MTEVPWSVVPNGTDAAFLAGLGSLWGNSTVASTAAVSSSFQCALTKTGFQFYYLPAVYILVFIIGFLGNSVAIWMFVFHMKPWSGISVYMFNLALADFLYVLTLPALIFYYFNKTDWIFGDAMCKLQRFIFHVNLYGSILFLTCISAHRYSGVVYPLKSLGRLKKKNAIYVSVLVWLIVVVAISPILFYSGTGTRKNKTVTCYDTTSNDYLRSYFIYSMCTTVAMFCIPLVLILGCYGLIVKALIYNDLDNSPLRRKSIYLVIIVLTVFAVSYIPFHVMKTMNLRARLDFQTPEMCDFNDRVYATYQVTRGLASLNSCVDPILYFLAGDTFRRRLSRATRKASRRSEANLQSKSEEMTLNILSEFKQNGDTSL
The data set can be described thus: Forced swimming test (FST) in C57BL/6J mice. The class given is in vivo. The following applies: for anti-depression like behavior (immobility time of swimming within the last 4 minutes): MRS2500 2.5 mg/kg intraperitoneally, FST 30 minutes later, 6 minutes; for immobility time of swimming: lateral ventricle administration, MRS2500 0.1 μM, MRS2179 0.2 μM, 1 μL, vs artificial cerebrospinal fluid control, FIG. 2; for immobility time during the forced swimming test: 0.5 μL shRNA adeno-associated virus at ventral tegmental area, 14 days after injection, vs control virus. The procedure:
Forced swimming test which was proposed by Porsolt in 1977 was applied to the rats at the earliest, and subsequently extended to the mice. The forced swimming test is used to screening for antidepressants which are found to decrease immobility time of the forced swimming mice, and such model is one of the most common-used models for screening for antidepressants at present. The test steps are as follows: experimental mice adapted in an ethology laboratory for at least 60 minutes in advance, and the following test was carried out: an individual mouse was put in a cylinder glass jar (height: 45 cm; diameter: 19 cm) with a water depth of 23 cm at water temperature of 22° C.-25° C., and was subjected to the forced swimming for 6 minutes. Accumulative immobility time within the last 4 minutes was recorded (mainly behaves as stopping struggling, floating upright, or having only small limb movements to keep the head emerge from the water) as an index of tested depression-like behavior. Effect of the antidepressant can shorten the immobility time of the experimental mice.
Experimental animals: C57BL/6J mice, grade SPF, male, body weight of 20 to 24 g. The animals were provided by the Laboratory Animal Center of Southern Medical University (Guangzhou, China). The mice were put in the SPF grade animal feeding room for feeding in separate cages, with 3 to 4 mice in each cage. The plastic cage has a size of 300 mm×170 mm×120 mm. Room temperature: 24±1° C., light-dark cycle: 12 hours/12 hours, illumination time: 7:00 a.m. to 7:00 p.m., relative humidity: 70% to 85%. The indoor environment was kept quiet and the mice could eat and drink freely. The tests were carried out at 1:00 to 5:00 in the afternoon. Before the test, the mice entered the experimental environment in advance for adaptation and were touched by the experimental personnel for adaptation.
In the forced swimming test of the C57BL/6J mice, the animals were divided into 5 groups randomly with 10 mice in each group. The animals in each group were surgically implanted with a medical perfusion tube at the lateral ventricle and fed for seven days for recovery. Then, four groups of animals were subjected to the following treatment respectively: by using a microdose drug delivery system, administering the corresponding reagent: a control solution (artificial cerebrospinal fluid, 1 μL, 1 μL/min), MRS2500 (0.1 μM, 1 μL, 1 μL/min), MRS2179 (0.2 μM, 1 μL, 1 μL/min). After the injection for each group was completed, the forced swimming test was carried out 10 minutes later.
2.5 mg/kg MRS2500 was intraperitoneally administered to the mice, and 30 minutes later, the mice were subjected to the forced swimming test for 6 minutes. Immobility time of swimming within the last 4 minutes was determined to evaluate the effect of the antidepressant.
Test method: the animal in each group was micro-injected with 0.5 μL of interfering RNA adeno-associated virus (shRNA) at the ventral tegmental area (angle: 7°, AP: −3.2 mm, ML: 1.0 mm, DV: −4.6 mm) (0.1 μL/min, remaining the needle for 5 minutes after injection), fed for 14 days and subjected to a forced swimming test after the expression recovery of virus. Titer of the P2Y1 specific-interfering shRNA is 1×10^13 v.g/ml, 9.55E+08 copy/μL. Adeno-associated virus type 9 was used to package the virus, with the promoter being U6 and the serotype being AAV9 (packaged by Biowit Company, Shenzhen, China). Sequence information: the forward sequence is shown as SEQ ID NO:1; and the reverse sequence is shown as SEQ ID NO:2.

For data set [2], the target named is T1, P2Y1 receptor. The data set can be described thus: Chronic social defeat stress model, social interaction test. The class given is in vivo, mice. The following applies: for duration at the interaction area, social interaction test: chronic social defeat stress depressed mice, 14 days after injection of shRNA virus, FIG. 9. Here is the method: The chronic social defeat stress model was carried out referring to the Golden method.
The C57BL/6J mice were randomly divided into a control group and a stress group. The C57BL/6J mouse in the stress group was daily put in a cage with a screened CD-1 mouse therein, for 10-minute body contact. As an invader, the C57BL/6J mouse behaved as escape, fear, obedience and the like after being attacked. After the contact, within the 24 hours after they were separated by a transparent and perforate partition, the C57BL/6J mouse could smell, see and hear the CD-1 mouse at the opposite side for mental stress. The C57BL/6J mice took turns daily to guarantee to be subjected to even stress. The test was continued for ten days. The CD-1 mouse in the control group was replaced by another C57BL/6J mouse, and took turns daily, but body contact was avoided. After modeling, the mice were fed in separate cages and were subjected to tube-implant surgery at the lateral ventricle. The control group and the test group were administered the corresponding reagent respectively: a control solution (artificial cerebrospinal fluid, 1 μL, 1 μL/min), MRS2500 (0.1 μM, 1 μL, 1 μL/min). After administration, depression level of the mice was tested by a social interaction test. The social interaction test was divided into two stages, 2.5 minutes for each stage. First stage (no target): the CD-1 mouse was not put in a transparent and perforate organic glass box; the C57BL/6J mice were put at the distal side, and dwell durations thereof at the interaction area and at the corner within 2.5 minutes were recorded. Second stage (target): the CD-1 mouse was put in the transparent and perforate organic glass box; the C57BL/6J mice were put at the distal side, and dwell durations thereof at the interaction area and at the corner within 2.5 minutes were recorded.
Experimental animals: C57BL/6J mice, grade SPF, male, body weight of 20 to 24 g. The animals were provided by the Laboratory Animal Center of Southern Medical University (Guangzhou, China). […]

For data set [3], the target named is T1, P2Y1 receptor. In words: Forced swimming test of mice modeled by chronic social defeat stress model. The following applies: chronic social defeat stress depressed mice, 14 days after injection of shRNA virus, FIG. 10. It is filed as in vivo. Here is the method: Forced swimming test which was proposed by Porsolt in 1977 was applied to the rats at the earliest, and subsequently extended to the mice. The forced swimming test is used to screening for antidepressants which are found to decrease immobility time of the forced swimming mice, and such model is one of the most common-used models for screening for antidepressants at present. […] Accumulative immobility time within the last 4 minutes was recorded (mainly behaves as stopping struggling, floating upright, or having only small limb movements to keep the head emerge from the water) as an index of tested depression-like behavior. […]
The C57BL/6J mice were randomly divided into a control group and a stress group. […] First stage (no target): the CD-1 mouse was not put in a transparent and perforate organic glass box; the C57BL/6J mice were put at the distal side, and dwell durations thereof at the interaction area and at the corner within 2.5 minutes were recorded. Second stage (target): the CD-1 mouse was put in the transparent and perforate organic glass box; the C57BL/6J mice were put at the distal side, and dwell durations thereof at the interaction area and at the corner within 2.5 minutes were recorded. […]

The target of data set [4] is T1, P2Y1 receptor. In words: Sucrose preference test of mice modeled by chronic social defeat stress model. The following applies: chronic social defeat stress depressed mice; 14 days after injection of shRNA virus; FIG. 11. It is filed as in vivo.
Data set [5] relates to P2Y1 receptor. The data set can be described thus: Expression of P2Y1 receptor after intracerebral injection of interfering RNA adeno-associated virus. The class given is in vivo. To be noted: mice injected at ventral tegmental area; vs control group mice. Here is the method: In order to further verify whether the P2Y1 receptor can be used as a target of anti-depression and/or anti-anxiety, and to avoid the compensatory effect that may exist in the conventional knockout mice, P2Y1 receptor specifically-interfering adeno-associated virus was prepared in the present invention to be observed whether the virus affects the depression-like behavior. The mice were intracerebrally injected with a trace amount of the P2Y1 receptor-interfering RNA adeno-associated virus at the ventral tegmental area, and then a forced swimming test was carried out. […] The inventors further used a depression model, chronic social defeat stress model to verify the effect of the P2Y1 receptor specifically-interfering adeno-associated virus. After modeling of the depression model was completed, the mice took a day off, and then were administered the P2Y1 receptor specifically-interfering adeno-associated virus, and two weeks later the mice were subjected to a behavior test. […] In the sucrose preference test, a decreased sucrose preference of the social failure depressed mice was reversed (as shown in FIG. 11). […]

The mark [6] stands for this setting: listed as P2Y1 receptor specifically-interfering adeno-associated virus.

Regarding `CNCCC(Oc1ccc(C(F)(F)F)cc1)c1ccccc1` (stereo not shown) [Fluoxetine], the “anti-depression like behavior (immobility time of swimming within the last 4 minutes)” value on P2Y1 receptor [1] (FIG. 1) was “anti-depression like behavior”.

Regarding `CNc1ncnc2c1ncn2[C@H]1C[C@H](OP(=O)(O)O)[C@@H](COP(=O)(O)O)O1` [MRS2179], the “immobility time of swimming” value at P2Y1 receptor [1] is “significantly reduce the immobility time; also recorded: significantly shorten the immobility time of swimming”.

As for `CNc1nc(I)nc2c1ncn2[C@H]1C[C@H](OP(=O)(O)O)[C@]2(COP(=O)(O)O)C[C@H]12` [MRS2500], the “anti-depression like behavior (immobility time of swimming within the last 4 minutes)” value on P2Y1 receptor [1] (FIG. 1, 2.5 mg/kg) is recorded as “shows the same anti-depression like behavior as administration of the conventional antidepressant Fluoxetine”. The “immobility time of swimming” value at P2Y1 receptor [1] is listed as “significantly reduce the immobility time; also recorded: significantly shorten the immobility time of swimming”. Besides, at P2Y1 receptor [2] (chronic social defeat stress C57BL/6J mice, single dose MRS2500 0.1 μM, 1 μL, lateral ventricle, FIG. 3), the “dwell duration at the interaction area (depressive situation)” value is “significantly improved; also recorded: can improve the dwell duration at the interaction area”.

B1: P2Y1-shRNA: P2Y1 specific-interfering shRNA packaged in adeno-associated virus type 9, U6 promoter; sequences SEQ ID NO:1 and SEQ ID NO:2 (nucleic acid)
chain 1: GATCCCCAGCCCTCATCTTCTACTACTTCATTCAAGAGATGAAGTAGTAGAAGATGAGGGCTGGTTTTTTAGATCTA
chain 2: AGCTTAGATCTAAAAAACCAGCCCTCATCTTCTACTACTTCATCTCTTGAATGAAGTAGTAGAAGATGAGGGCTGGG
Turning to B1, the “immobility time during the forced swimming test” value in the data set with P2Y1 receptor [1] (FIG. 8) was “significantly reduced immobility time”; with P2Y1 receptor [1] (FIG. 8, listed as P2Y1 receptor-interfering RNA), “obviously decreased immobility time”. Further, the “duration at the interaction area, social interaction test” value is on record as “enhance the duration at the interaction area” with P2Y1 receptor [2] and “situation of the social defeat depressed mice was reversed” with P2Y1 receptor [2] (setting [6]). In addition, the entries for the “immobility time, forced swimming test” value with P2Y1 receptor [3] and in the data set with P2Y1 receptor [3] (setting [6]) were “reduce the increased immobility time” and “returned to the level of the control group”, respectively. Moreover, the sucrose preference entry with P2Y1 receptor [4] was “enhance the decreased sucrose preference”. Besides, the “expression of P2Y1 receptor” value with P2Y1 receptor [5] is recorded as “significantly decreased the expression of P2Y1 receptor”.
